Data as given in article PMC3343102, “Dynamics of Brassinosteroid Response Modulated by Negative Regulator LIC in Rice”.

T1: MBP-OsBZR1 (Oryza sativa, UniProt Q7XI96 1-298)
T1 sequence: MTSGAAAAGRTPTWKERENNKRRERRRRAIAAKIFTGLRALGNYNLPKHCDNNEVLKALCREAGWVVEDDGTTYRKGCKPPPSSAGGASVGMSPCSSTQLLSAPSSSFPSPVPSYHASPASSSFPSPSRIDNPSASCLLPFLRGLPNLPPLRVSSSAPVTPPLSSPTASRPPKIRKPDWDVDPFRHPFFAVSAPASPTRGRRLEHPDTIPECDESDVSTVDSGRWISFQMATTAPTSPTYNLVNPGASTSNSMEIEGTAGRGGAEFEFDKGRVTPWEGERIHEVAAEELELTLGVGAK


Target: T1, MBP-OsBZR1
Assay: EMSA; EMSA, 20 uL: 2 ug protein; 2 uL 10x buffer (100 mM Tris, 500 mM KCl, 10 mM DTT, pH 7.5), 1 uL each of 50% glycerol, 1% NP-40, 1 M KCl, 100 mM MgCl2, 200 mM EDTA, 1 ug/uL poly(dI-dC); i.e. about 10 mM Tris, 100 mM KCl, 5 mM MgCl2, 10 mM EDTA; 25 C, 20 min; 10% native PAGE
Conditions: protein: recombinant; tags: MBP (N-terminal fusion, pETMALc-H); chain copies: 2; label: biotin 3' end; blunt

Binder	binding result
LIC promoter P1 (dsDNA) DNA 1: CGACGTCGTGCGGCCGCG DNA 2: CGCGGCCGCACGACGTCG	binds
LIC promoter P2 (dsDNA) DNA 1: CGGGCGCGTGTGTGGCGG DNA 2: CCGCCACACACGCGCCCG	no binding
MP1 (P1 with CGTGCG to CGAAAA) (dsDNA) DNA 1: CGACGTCGAAAAGCCGCG DNA 2: CGCGGCTTTTCGACGTCG	no binding
